# Assay results from US20140010832A1 (EPFL TTO, published 2014).
# B1: human PDGF-BB-PlGF2123-144 (ligand)
# chain: SLGSLTIAEPAMIAECKTRTEVFEISRRLIDRTNANFLVWPPCVEVQRCSGCCNNRNVQCRPTQVQLRPVQVRKIEIVRKKPIFKKATVTLEDHLACKCETVAAARPVTRRRPKGRGKRRREKQRPTDCHL
# B2: human BMP-2-PlGF2123-144* (ligand)
# chain: QAKHKQRKRLKSSCKRHPLYVDFSDVGWNDWIVAPPGYHAFYCHGECPFPLADHLNSTNHAIVQTLVNSVNSKIPKACCVPTELSAISMLYLDENEKVVLKNYQDMVVEGCGCRRRPKGRGKRRREKQRPTDSHL
# notes: Inserted at the C-terminus of BMP-2
# B3: human VEGF-A121-PlGF2123-144 (ligand)
# chain: APMAEGGGQNHHEVVKFMDVYQRSYCHPIETLVDIFQEYPDEIEYIFKPSCVPLMRCGGCCNDEGLECVPTEESNITMQIMRIKPHQGQHIGEMSFLQHNKCECRPKKDRARQERRRPKGRGKRRREKQRPTDCHLCDKPRR
# B4: PlGF2 (ligand)
# chain: PAVPPQQWALSAGNGSSEVEVVPFQEVWGRSYCRALERLVDVVSEYPSEVEHMFSPSCVSLLRCTGCCGDENLHCVPVETANVTMQLLKIRSGDRPSYVELTFSQHVRCECRPLREKMKPERRRPKRGKRRREKQRPTDCHLCGDAVPRR
# notes: also called PIGF-2; placenta growth factor 2
# Biological target: Collagen I
# Sequence (P02452 162-1218, chain 1 of 2): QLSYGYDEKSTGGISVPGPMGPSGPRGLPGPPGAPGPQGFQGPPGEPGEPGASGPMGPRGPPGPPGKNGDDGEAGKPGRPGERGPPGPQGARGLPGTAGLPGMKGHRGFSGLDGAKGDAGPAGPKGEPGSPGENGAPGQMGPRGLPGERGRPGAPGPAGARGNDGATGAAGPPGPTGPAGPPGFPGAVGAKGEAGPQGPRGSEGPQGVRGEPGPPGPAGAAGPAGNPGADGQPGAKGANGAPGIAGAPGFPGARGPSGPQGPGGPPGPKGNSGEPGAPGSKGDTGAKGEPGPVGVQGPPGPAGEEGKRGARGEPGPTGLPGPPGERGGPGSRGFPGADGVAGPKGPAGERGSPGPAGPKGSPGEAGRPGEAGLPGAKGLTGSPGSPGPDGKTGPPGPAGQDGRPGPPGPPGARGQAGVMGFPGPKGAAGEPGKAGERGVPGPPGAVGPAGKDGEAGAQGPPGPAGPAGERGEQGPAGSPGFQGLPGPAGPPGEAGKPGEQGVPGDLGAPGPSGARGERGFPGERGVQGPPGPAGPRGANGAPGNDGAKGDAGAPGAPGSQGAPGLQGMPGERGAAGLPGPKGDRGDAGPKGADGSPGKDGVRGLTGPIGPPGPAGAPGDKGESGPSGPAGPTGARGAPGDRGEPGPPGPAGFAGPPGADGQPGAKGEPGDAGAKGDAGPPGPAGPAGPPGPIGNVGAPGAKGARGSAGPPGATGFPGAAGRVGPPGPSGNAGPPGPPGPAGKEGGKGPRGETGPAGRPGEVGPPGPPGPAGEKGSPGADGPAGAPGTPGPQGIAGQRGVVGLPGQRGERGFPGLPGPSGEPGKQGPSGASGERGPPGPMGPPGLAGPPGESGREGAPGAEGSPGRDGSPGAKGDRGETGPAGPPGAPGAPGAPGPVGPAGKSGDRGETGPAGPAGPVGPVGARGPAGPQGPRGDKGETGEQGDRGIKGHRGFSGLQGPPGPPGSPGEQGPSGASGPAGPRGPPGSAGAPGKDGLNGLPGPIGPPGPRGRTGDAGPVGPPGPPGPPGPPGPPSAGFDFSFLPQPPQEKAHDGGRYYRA
# Sequence (P08123 80-1119, chain 2 of 2, further chain): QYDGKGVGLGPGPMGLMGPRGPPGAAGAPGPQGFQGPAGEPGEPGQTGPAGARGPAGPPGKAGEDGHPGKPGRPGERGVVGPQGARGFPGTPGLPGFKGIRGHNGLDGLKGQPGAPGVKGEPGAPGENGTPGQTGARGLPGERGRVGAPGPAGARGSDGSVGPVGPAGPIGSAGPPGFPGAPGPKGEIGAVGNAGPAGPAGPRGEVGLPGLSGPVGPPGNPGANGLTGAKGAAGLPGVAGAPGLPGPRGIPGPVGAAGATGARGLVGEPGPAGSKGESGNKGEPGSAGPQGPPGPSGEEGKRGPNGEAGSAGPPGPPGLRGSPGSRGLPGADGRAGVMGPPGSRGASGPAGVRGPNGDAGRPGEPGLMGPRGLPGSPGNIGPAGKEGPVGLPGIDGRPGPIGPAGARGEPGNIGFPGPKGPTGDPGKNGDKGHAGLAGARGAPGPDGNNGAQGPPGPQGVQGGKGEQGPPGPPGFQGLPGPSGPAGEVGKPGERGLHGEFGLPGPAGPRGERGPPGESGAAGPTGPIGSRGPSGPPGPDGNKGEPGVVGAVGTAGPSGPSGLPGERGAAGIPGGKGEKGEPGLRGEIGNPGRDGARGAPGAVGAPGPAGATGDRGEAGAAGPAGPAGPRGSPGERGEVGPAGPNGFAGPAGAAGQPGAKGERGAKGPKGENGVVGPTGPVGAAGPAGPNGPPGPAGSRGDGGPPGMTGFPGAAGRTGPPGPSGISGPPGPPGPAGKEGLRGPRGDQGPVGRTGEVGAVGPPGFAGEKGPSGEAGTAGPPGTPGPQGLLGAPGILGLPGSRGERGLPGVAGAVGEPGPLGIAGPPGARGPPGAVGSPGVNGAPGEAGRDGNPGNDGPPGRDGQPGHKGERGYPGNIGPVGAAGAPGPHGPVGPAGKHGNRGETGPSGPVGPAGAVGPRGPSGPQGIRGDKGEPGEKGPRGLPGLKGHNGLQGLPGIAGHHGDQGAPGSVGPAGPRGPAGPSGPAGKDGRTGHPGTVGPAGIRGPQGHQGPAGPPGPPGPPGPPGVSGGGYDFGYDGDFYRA
# Experiment: ELISA; cytokine coated, ECM protein 0.02 to 320 nM, KD by non-linear fit
row,Kd,Binder
1,96.3 nM,B1
2,102 nM,B2
3,124 nM,B3
4,126 nM,B4
